According to the supplement of paper PMC9112550, “Optimization of the antimicrobial peptide Bac7 by deep mutational scanning” (BMC Biology, 2022):

Tested on: Escherichia coli TOP10
Experiment: shrunken log2 fold change of peptide-encoding DNA abundance (4.5 h post-induction vs induction); higher = less antimicrobial activity (less host growth inhibition)
Settings: time post-induction: 4.5 h; library: site-saturation at positions 5, 18, 19, 20
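Also: peptides expressed intracellularly from a pBAD plasmid library in pooled LB shake-flask culture, induced with 0.3% L-arabinose, DNA abundance read by NGS, three biological replicates, DESeq2 with apeglm shrinkage.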

Sequence | shrunken log2 fold change
RRIRMRPPRLPRPRPRPEIPPRP | 0.497
RRIRHRPPRLPRPRPRPRTGPRP | -0.111
RRIRIRPPRLPRPRPRPLYTPRP | -0.723
RRIRVRPPRLPRPRPRPAKGPRP | -0.283
RRIRTRPPRLPRPRPRPLRKPRP | 0.258
RRIRNRPPRLPRPRPRPQQDPRP | -0.38
RRIRTRPPRLPRPRPRPISHPRP | -0.328
RRIRMRPPRLPRPRPRPKQCPRP | 0.208
RRIRTRPPRLPRPRPRPSNHPRP | -0.666
RRIRTRPPRLPRPRPRPISFPRP | -0.199
RRIRARPPRLPRPRPRPQTSPRP | 0.00801
RRIRKRPPRLPRPRPRPVVIPRP | -0.112
RRIRVRPPRLPRPRPRPYYQPRP | -0.245
RRIRARPPRLPRPRPRPMCWPRP | 0.737
RRIRDRPPRLPRPRPRPRMVPRP | -0.177
RRIRVRPPRLPRPRPRPDQIPRP | -0.0895
RRIRARPPRLPRPRPRPFRHPRP | -0.0722
RRIRLRPPRLPRPRPRPPIIPRP | -0.195
RRIRARPPRLPRPRPRPIIWPRP | -0.419
RRIRSRPPRLPRPRPRPADCPRP | 0.0938
RRIRWRPPRLPRPRPRPHFNPRP | -0.333
RRIRPRPPRLPRPRPRPPEEPRP | 0.885

Sequence | shrunken log2 fold change
RRIRERPPRLPRPRPRPLHWPRP | 0.0186
RRIRGRPPRLPRPRPRPINLPRP | -0.0974
RRIRVRPPRLPRPRPRPSMAPRP | -0.0698
RRIRRRPPRLPRPRPRPCIYPRP | 0.0603
RRIRDRPPRLPRPRPRPPVMPRP | -0.435
RRIRMRPPRLPRPRPRPCGAPRP | 1.15
RRIRPRPPRLPRPRPRPCSYPRP | -0.858
RRIRFRPPRLPRPRPRPHRWPRP | -0.17
RRIRCRPPRLPRPRPRPAFSPRP | -0.252
RRIRLRPPRLPRPRPRPTYYPRP | -0.399
RRIRTRPPRLPRPRPRPHIWPRP | -0.103
RRIRFRPPRLPRPRPRPKMRPRP | 0.223
RRIRLRPPRLPRPRPRPQLTPRP | 0.103
RRIRRRPPRLPRPRPRPHPCPRP | 0.0156
RRIRCRPPRLPRPRPRPSAPPRP | 0.0889
RRIRWRPPRLPRPRPRPKMIPRP | -0.22
RRIRGRPPRLPRPRPRPPQRPRP | 0.97
RRIRNRPPRLPRPRPRPMSNPRP | 0.0527
RRIRNRPPRLPRPRPRPLGKPRP | -0.299
RRIRDRPPRLPRPRPRPKTTPRP | 0.0604
RRIRFRPPRLPRPRPRPEWNPRP | -0.21
RRIRNRPPRLPRPRPRPPIWPRP | -0.129

Sequence | shrunken log2 fold change
RRIRYRPPRLPRPRPRPMRYPRP | -0.114
RRIRKRPPRLPRPRPRPLFWPRP | 0.593
RRIRWRPPRLPRPRPRPDWFPRP | 0.147
RRIRIRPPRLPRPRPRPHWQPRP | 1.4
RRIRMRPPRLPRPRPRPEKYPRP | 0.746
RRIRMRPPRLPRPRPRPMEHPRP | 0.0124
RRIRTRPPRLPRPRPRPGYTPRP | 0.0635
RRIRNRPPRLPRPRPRPAQFPRP | 0.0855
RRIRNRPPRLPRPRPRPLDGPRP | -0.0308
RRIRTRPPRLPRPRPRPLSDPRP | -0.029
RRIRPRPPRLPRPRPRPQMKPRP | -0.151
RRIRRRPPRLPRPRPRPSEGPRP | 0.163
RRIRIRPPRLPRPRPRPQGWPRP | -0.00188
RRIRTRPPRLPRPRPRPIHDPRP | -0.0511
RRIRRRPPRLPRPRPRPTWSPRP | 0.519
RRIRSRPPRLPRPRPRPYFDPRP | -0.597
RRIRCRPPRLPRPRPRPTCSPRP | -0.157
RRIRDRPPRLPRPRPRPAKSPRP | -0.0126
RRIRPRPPRLPRPRPRPWSEPRP | -0.0275
RRIRARPPRLPRPRPRPAWVPRP | 0.235
RRIRWRPPRLPRPRPRPKCFPRP | -0.076
RRIRYRPPRLPRPRPRPQQWPRP | 0.155

Sequence | shrunken log2 fold change
RRIRTRPPRLPRPRPRPMVSPRP | -0.0669
RRIRKRPPRLPRPRPRPGLLPRP | 0.494
RRIRMRPPRLPRPRPRPRLRPRP | 1.17
RRIRVRPPRLPRPRPRPTWHPRP | 0.384
RRIRQRPPRLPRPRPRPRTSPRP | 0.131
RRIRKRPPRLPRPRPRPTCEPRP | 0.793
RRIRVRPPRLPRPRPRPSHFPRP | -0.443
RRIRRRPPRLPRPRPRPITMPRP | -0.0568
RRIRLRPPRLPRPRPRPGKPPRP | -0.0724
RRIRTRPPRLPRPRPRPKKYPRP | -0.627
RRIRDRPPRLPRPRPRPLCSPRP | 0.513
RRIRKRPPRLPRPRPRPRPVPRP | 0.732
RRIRNRPPRLPRPRPRPLVQPRP | -0.28
RRIRSRPPRLPRPRPRPRFNPRP | -0.153
RRIRHRPPRLPRPRPRPMDPPRP | -0.385
RRIRRRPPRLPRPRPRPTTLPRP | 0.0363
RRIRMRPPRLPRPRPRPRWKPRP | 0.214
RRIRIRPPRLPRPRPRPVYCPRP | -0.127
RRIRNRPPRLPRPRPRPQKCPRP | 0.0748
RRIRMRPPRLPRPRPRPTQPPRP | 0.176
RRIRWRPPRLPRPRPRPQFHPRP | -0.275
RRIRARPPRLPRPRPRPWSAPRP | 0.132

Sequence | shrunken log2 fold change
RRIRSRPPRLPRPRPRPGGTPRP | 0.247
RRIRQRPPRLPRPRPRPNVDPRP | -0.0229
RRIRQRPPRLPRPRPRPDGDPRP | -0.0112
RRIRHRPPRLPRPRPRPAQSPRP | -0.0382
RRIRIRPPRLPRPRPRPRYCPRP | -0.157
RRIRDRPPRLPRPRPRPCSEPRP | 0.283
RRIRNRPPRLPRPRPRPSVPPRP | -0.344
RRIRTRPPRLPRPRPRPFNPPRP | -1.37
RRIRKRPPRLPRPRPRPSYGPRP | -0.141
RRIRIRPPRLPRPRPRPKYLPRP | -0.437
RRIRTRPPRLPRPRPRPVTKPRP | 0.0906
RRIRVRPPRLPRPRPRPKETPRP | 0.0161
RRIRWRPPRLPRPRPRPANIPRP | -0.884
RRIRTRPPRLPRPRPRPVANPRP | 0.133
RRIRCRPPRLPRPRPRPPVMPRP | 0.298
RRIRHRPPRLPRPRPRPYFYPRP | -0.881
RRIRGRPPRLPRPRPRPVWIPRP | 0.276
RRIRTRPPRLPRPRPRPETSPRP | 0.199
RRIRTRPPRLPRPRPRPPAMPRP | 0.294
RRIRQRPPRLPRPRPRPQWDPRP | 0.0263
RRIRCRPPRLPRPRPRPHYPPRP | -0.902
